In PMC4739061 one finds Kd and decrease in donor lifetime data, which are given here for two substances.

The target of experiment [1] is FGFR1 kinase domain and tail (Homo sapiens) (UniProt P11362). Particulars: cited from earlier work.
Experiment [2] addresses GyrB.FGFR1KD.TC, activated (incubated with ATP, autophosphorylated) (UniProt P11362). As to the kind of experiment: FRET or BRET; TR-FRET, lifetime of donor mTFP in a quartz cuvette; GyrB.FGFR1KD.TC (1 uM) tagged with FlAsH-EDT2 and mTFP.nSH2 (1 uM); 40 mM Tris-HCl pH 8.0, 20 mM MgCl2, 20 mM NaCl, 100 uM TCEP, 100 uM Na3VO4; with 50 uM ATP, ambient conditions, 30 min.

Turning to PLCγ1 nSH2 (from UniProt P19174), in experiment [1], the equilibrium dissociation constant (Kd) is 5 nM.
“mTurquoise.nSH2 fusion protein (mTFP.nSH2) (domain or fragment)” returned a decrease in donor lifetime in experiment [2] of 500 ps.
